Key:
[1] = molecular target: Alexa 488 labeled DARPin C14; assay: fluorescence polarisation; fluorescence anisotropy; 500 nM Alexa 488 labeled DARPin constant, p63 isoform 0-10 µM; 50 mM Tris pH 8, 150 mM NaCl, 0.5 mM TCEP, 0.1 % Tween-20; the sheet says 20 °C, the methods 16 °C
[2] = molecular target: Alexa 488 labeled DARPin 8F1; assay: as above
[3] = molecular target: Alexa 488 labeled DARPin A5; assay: as above
DARPin A5 [4] = assay: ITC; target proteins titrated to constant concentrations of DARPin; 50 mM HEPES, pH 7.4, 150 mM NaCl, 0.5 mM TCEP; AB hetero-association model (SEDPHAT); temperatures not shown
DARPin A5 [5] = assay: ITC; target protein titrated into a constant concentration of DARPin, 25 injections of 10 µl; 50 mM HEPES pH 7.4, 150 mM NaCl, 0.5 mM TCEP; 25 °C; AB hetero-association model (SEDPHAT)

Row | Kd [1] [nM] | Kd [2] [nM] | Kd [3] [nM] | Kd (DARPin A5 [4]) [nM] | Ka (DARPin A5 [5]) [M⁻¹] | Binder
1 | 202 | 95.6 | 67.9 |  |  | ΔNp63α (natural protein) MLYLENNAQTQFSEPQYTNLGLLNSMDQQIQNGSSSTSPYNTDHAQNSVTAPSPYAQPSSTFDALSPSPAIPSNTDYPGPHSFDVSFQQSSTAKSATWTYSTELKKLYCQIAKTCPIQIKVMTPPPQGAVIRAMPVYKKAEHVTEVVKRCPNHELSREFNEGQIAPPSHLIRVEGNSHAQYVEDPITGRQSVLVPYEPPQVGTEFTTVLYNFMCNSSCVGGMNRRPILIIVTLETRDGQVLGRRCFEARICACPGRDRKADEDSIRKQQVSDSTKNGDGTKRPFRQNTHGIQMTSIKKRRSPDDELLYLPVRGRETYEMLLKIKESLELMQYLPQHTIETYRQQQQQQHQHLLQKQTSIQSPSSYGNSSPPLNKMNSMNKLPSVSQLINPQQRNALTPTTIPDGMGANIPMMGTHMPMAGDMNGLSPTQALPPPLSMPSTSHCTPPPPYPTDCSIVSFLARLGCSSCLDYFTTQGLTTIYQIEHYSMDDLASLKIPEQFRHAIWKGILDHRQLHEFSSPSHLLRTPSSASTVSVGSSETRGERVIDAVRFTLRQTISFPPRDEWNDFNFDMDARRNKQQRIKEEGE
2 |  |  |  | 16 | 6.18e+07 | p63 Sterile α-motif (SAM) domain (domain or fragment) PPYPTDCSIVSFLARLGCSSCLDYFTTQGLTTIYQIEHYSMDDLASLKIPEQFRHAIWKGILDHRQL
